One assay concerns the target Nsp3 Ubl1 (SARS-CoV-2) (UniProt P0DTD1). Briefly: fluorescence polarisation.
For assay [1], the target named is FITC-PRDM14_(197–213) (human). Briefly: fluorescence polarisation.

In the case of “Y to V mutant of the NCOA2_(1074–1089) peptide (from UniProt Q15596 1074-1089)”, the fold lower affinity than NCOA2 (1074–1089) with Nsp3 Ubl1 (SARS-CoV-2) was determined as 20 fold.
In turn, “Nsp3 SUD-M A1397E, V1453K, S1478D (from UniProt P0DTD1 819-2763) (domain or fragment)” came in with a fold reduction of affinity against wild-type Nsp3 SUD-M in assay [1] of 100 fold.

(Values after PMC10499821.)
